The record followed here is the DeepSol protein solubility set.

The nature of the data set: soluble on expression in E. coli; label from the status in PepcDB or PDB records.
For “ATAVNGAPRDAALWSSHEQMLAQPLKDSDAEVYDIIKKESNRQRVGLELIASENFASRAVLEALGSCLNNKYSEGYPGQRYYGGTEHIDELETLCQKRALQAYGLDPQCWGVNVQPYSGSPANFAVYTALVEPHGRIMGLDLPDGGHLTHGFMTDKKKISATSIFFESMAYKVNPDTGYIDYDRLEENARLFHPKLIIAGTSCYSRNLDYGRLRKIADENGAYLMADMAHISGLVVAGVVPSPFEHCHVVTTTTHKTLRGCRAGMIFYRRGVRSVDPKTGKEILYNLESLINSAVFPGLQGGPHNHAIAGVAVALKQAMTPEFKEYQRQVVANCRALSAALVELGYKIVTGGSDNHLILVDLRSKGTDGGRAEKVLEACSIACNKNTCPGDKSALRPSGLRLGTPALTSRGLLEKDFQKVAHFIHRGIELTVQIQDDTGPRATLKEFKEKLAGDEKHQRAVRALRQEVESFAALFPLPGLPGF”, the “soluble on expression in E. coli” value was “soluble”.

Regarding “MGSDKIHHHHHHMSIESILKNRSSTRAFLDKPVTKETLDLIFAHAQLSPSNCNVQPWQTCVVSGQTKDTLKQKFMQTLMSGASPNPDFNWLPQYQGVHRDRQFGSANALYSSIGVAREDKKARQMAMVRNWQFFDAPHAVFFTMDKYLDIMGAVDLGIYAQTLSLIMADHGISNCMQGALGQFPDPVREILNLPAERGILFGMSFGYADDSAAVNNTRTDREPIENAVAFFD”, the “soluble on expression in E. coli” value is given as “not soluble”.

Turning to “MSLRSAYLSTESKIVLDVISVSDTHGWIYGHRHLPEYGDYGTLLSYIERTRQKALESEGRSVLAVDAGDLVEGTGLSDLTKVKGEKILEAASYIGFDLQTIGNHESYYKETTDYIHSKVEALFGDRYITTNVFMRDTNVPVGSGRYKYLVLPTGLRVLMLGFLFHTSPYDGVYTIPAREAIASQEITGVLEKYKYQTDLLVLACHIPTYDLEISEIVTELRAFYNQINYTIPIIIIAGHYHQIKNTYCMDGQDKQCYIVEGGCYLRFMQHVTYEFKPMTYSHEGNTYTGYQFSSVDYSLPYNEGHHHHHH”, the “soluble on expression in E. coli” value is “soluble”.

With “MELTMKNPTVENLKVLTQEFFSLHWNAVLLGSDYPEWSDIYEFTGSMPNHDKQGVYAFVKNGVVTYIGVGASSNGTGRYAGHGLGKRFQSYSKVVDGRHVPTDPRLVDAGAMITIGFKPEQSYLAYALEMFLIGKMSTEHNINRPSK”, the “soluble on expression in E. coli” value is on record as “not soluble”.

As to “MGSDKIHHHHHHGQYIKKETVNSQVYAVIYAEGLAGSAQWVSGFKMMKNDATIRHQVSRGNGGNPIVNDRIPMRFIIAPTDVANVTWMQAEGAGDGNGNLNADFRSTAATGCRSYKIAGDPNRKWRVPTQRELQLMWLFREPVGVIYPAAQMENVSSKIYWAATEEDAANAWYFDFKQGVPQCSWQLKTTSSNVRCVSDY”, the “soluble on expression in E. coli” value was “not soluble”.

For the sequence “PTSAPQHLTVEDVTDTTTTLKWRPPDRIGAGGIDGYLVEYCLEGSEEWVPANKEPVERCGFTVKDLPTGARILFRVVGVNIAGRSEPATLLQPVTIRE”, the “soluble on expression in E. coli” value was “soluble”.

For “SIGLFKVKEKQREQAQNATRGGASVKKQSAGELRLHKDISELNLPSSCSISFPNGKDDLMNFEVSIKPDDGYYHNGTFVSHSKSLLCIHMKLQKLNAKPRFIIPISIWKETFA”, the “soluble on expression in E. coli” value is reported as “soluble”.

In the case of “MGSDKIHHHHHHMVQVDNTFYDGSAYDPETVRFFDVAQEGAQVRQIGGLVAQGALSAFEGLRPRSVVVMLDGQIHRSCVRLVETLHSPMRQPLVITSTLPHYIGALDVLIVITDNGADEKALKALITASQRGVATLLIGPSSGPLIDESPQDTFVLPTLPTAAGLSPARIVASISTLLDLLEADPSIISDRLEHLADCIDEEVESLSPERDELVNPGRKLRAYVDHARIVHTGRTDVGLAIANVIAPIWTRRGLVSAVLDFPELMESLPELRGPEPITDDIFHDPFIDDEPGVVPFRAVVWAEEEPGIPDAMAQSCDGPSKGALTQALRLLVRGQSATTYSIEEKDL”, the “soluble on expression in E. coli” value is “not soluble”.

For the sequence “MSLKRKYEDHFKEQAVRLSFERGEISSVERELGINRTSLGKWRKKYEHLKLAPKDAVIIELNKKIKDSLLTLEILKNGSEFAAQGKVMTKRFIENNSSKYPIGKMCALLQISQRAYYKLKKKEISDKQSQIILLKEEVAAVYYEFKKTYGYRKIAKVLQCRGFKVGESQIRIYMNALGLRRRAKSRFTITTDSVHNHYIAQNILNREFTINQPAKAWVSDITYIAAEKGFLYLTIVLDLFDRKIIGWSLADSMSTKETTLPAWEMAVKNRNITQDLIFHSDRGVQYANKIFTETLDSYKFVRRSMSRKQNHNDNAVSESFFGNLKRELINGNKPLPREQMRVQVYQYIENWYNKKRRHSYLNYRTIEEFDKLHEGHHHHHH”, the “soluble on expression in E. coli” value was “not soluble”.

Regarding “MPSYKLTYFFFRGLGEPIRLLFHLAGVQFEEVRMNPDQTWLDIKDSTPMKQLPVLNIDGFELPQSGAILRYLARKFGFAGKTPEEEAWVDAVHDLFKDFLAEFKKFAAERRSGKSAEEVEKFRSEFFLPARNTYFNILNGLLEKSNSGFLIGSDITFADLVVVDNLLTLKNYGLFDESEFTKLAALREKVNSYPGIKEYIAKRPVTEY”, the “soluble on expression in E. coli” value is given as “soluble”.

Take “MLDQVCQLARNAGDAIMQVYDGAKPMDVVSKADNSPVTAADIAAHTVIMDGLRTLTPDIPVLSEEDPPGWEVRQHWQRYWLVDPLDGTKEFIKRNGEFTVNIALIDHGKPILGVVYAPVMNVMYSAAEGKAWKEECGVRKQIQVRDARPPLVVISRSHADAELKEYLQQLGEHQTTSIGSSLKFCLVAEGQAQLYPRFGPTNIWDTAAGHAVAAAAGAHVHDWQGKPLDYTPRESFLNPGFRVSIY”: the “soluble on expression in E. coli” value was “not soluble”.

For “MGRFQTLDYEIPESMQRSWQDIVNLLAQIADVPTTLIMRVHQNHIEVNTSSDTQGNPYKAGDKEDLGHGLYCEHVIETKSQLVVPDALADEKWSNNPDIKLGMLSYCGLPLFWPNGETFGTICMLDSKANEYSETYRQLLNTFKDSIEAQLAVVYQQYKLLR”, the “soluble on expression in E. coli” value is on record as “not soluble”.

Take “MDASSGAAADPAEGSAPEGAASGGTGAPNGTDPLDAPNDLGNVPGESAGAGAGAASSGASRSAIMAVTAGGSQGPAVSWGEAADSRSSTWETEGRAAGSLARQAVTRSCSGCGRAGRSGSAEVMRCTTVASESPSKGPRPQAAKTSTEPRENTSLGGPRSVAPRACSGDMKPGVPITEPAAVSAVASTARAMPKSMIRGPSAARITLPGFRSRCTSPQEWMAARPSASPAPSRSTVCSGSGPCASTASCSDGPGT”: the “soluble on expression in E. coli” value was “not soluble”.

“MPEIRLRHVVSCSSQDSTHCAENLLKADTYRKWRAAKAGEKTISVVLQLEKEEQIHSVDIGNDGSAFVEVLVGSSAGGAGEQDYEVLLVTSSFMSPSESRSGSNPNRVRMFGPDKLVRAAAEKRWDRVKIVCSQPYSKDSPFGLSFVRFHSPPDKDEAEAPSQKVTVTKLGQFRVKEEDESANHHHHHH”: the “soluble on expression in E. coli” value is recorded as “soluble”.

Turning to “SEEITDGVNNMNLATDSQKKNRIQVSNTKKPLFFYVNLAKRYMQQYNDVELSALGMAIATVVTVTEILKNNGFAVEKKIMTSIVDIKDDARGRPVQKAKIEITLVKSEKFDELMAAANEEKEDAETQVQN”, the “soluble on expression in E. coli” value is on record as “soluble”.

Take “MQAVSVDETKNTVVLRAEHKNEEGRKSVDKFEVKTRNPETIKSVERKLMEKGVQRMDRHPSDGIPLRRPPSKSGHGGKYTWEGPDRMEDYEMQPDPPAMDEGDPNYDEEQVKKSGDDVAVELVKGEVEVAKEAPAGVARVEVDPRLVGR”: the “soluble on expression in E. coli” value is on record as “soluble”.

With “MGSDKIHHHHHHMKKALVIGGGFAGCSAAHLLSLQGGWDITVVESGPWLGGGCKTLWYGGHPYTFGPRHFLTQNVPVFDYLNKYCPLRRCNDHVFLTYVEKDAQFYNYPIHIDDVARMPEKDQINKELTEAKQLNGAGAAKDFEEYWLASIGRTLYDKFVNTYSKKMWMLDDNKVMDDFSWSPKGVALKEGPRQAWDTAISAYPIAPNGYDDYFEIATRAEGVKVLWTTIEQYDLPNKTVVIDGEKRTYDAIINTASPDLVMDNAFGELPYIGRDFIKFVLPIAHAFPKDVYFLYYASDEPFTRLVEYKQFTRINYDAESTIIGMEIPSKNGRYYPLPLKTEYERAQKYFDAMGENVFSIGRCGSYQYRVDVDDCIAQAMDSVEKLK”, the “soluble on expression in E. coli” value is “not soluble”.

For the sequence “MSQSKADYINVIGAGLAGSEAAYQIAKRGIPVKLYEMRGVKATPQHKTTNFAELVCSNSFRGDSLTNAVGLLKEEMRRLDSIIMRNGEAHRVPAGGAMAVDREGYAEAVTAEIESHPLIEVIRKEITEIPDDAITVIASGPLTSDALAEKIHELNGGDGFYFYDAAAPIVDKATIDMNKVYLKSRYDKGEAAYLNCPMTKEEFMAFYEALTTAEEAPLNSFEKEKYFEGCMPIEVMAKRGIKTMLYGPMKPVGLEYPEDYMGPRDGDFKTPYAVVQLRQDNAAGSLYNIVGFQTHLKWGEQKRVFQMIPGLENAEFVRYGVMHRNSYMDSPNLLKQTFQSKSNPNLFFAGQMTGVEGYVESAASGLVAGINAARLFKGEDEVIFPHTTAIGSLPYYVTHAESKHFQPMNVNFGIIKELEGPRIRDKKERYEKIAERSLKDLQTFIDALEHHHHHH”, the “soluble on expression in E. coli” value was “soluble”.

On to “MIRSSIDLMLKTGAAALAKNFENRDPIAGQREILARLVVAAAVTRFGRDHGFAELAGEPFDRLYAEFRRRVPIRTYADFWRDYFSAWQSDANGSQRLLLEDVTWPGRIPFFCETSGTTAPTKYIPFSREMFAANKRAAIDLTACYLHRTPRSRLFQGKLLYMAGNTSLTDLGNGVQSGDMSGITLRHRPFYLRPFVAPGMAVSALPWEEKVVELAGLLLSDRSIRGISGVPPWIILLLQRVEEMGHRPIAELLPNLELIIHGGTSMKPYRREFDGLFPRRRPHFLEVLPSSEAFMAFQLPGEDRMRLVPHYGAFFEFIPIEDLDEGGTPAADAPTVPLEAVETGRRYAVILTTCAGLWRYHIGDTLRFTALSPHFIEFTGRDRFLDRFEEKVTQGEVEEAVARLNQLDGIEVREFMVGPDIGERRHLWVLAVGEMNERSGDVLGRHLDATLRSLNADYATFRSQGRIAGPRVVTVSGDVIYRWSKEVRGKLGGQSKIPHVDPTVEGEMVASLAAFARRFQACWIADSFQGFGPTGRVKVQNSSNFTGSRSLPERTRPSSSVVLEHHHHHH”, for which the “soluble on expression in E. coli” value is “not soluble”.

For the sequence “MAGDPMRRPHMSDATLVYDDDCGFCTWWADFIGERSDLEIVGFSALGDDLLERLPDDYESCSHLVTEEDVYSCGKSIETALTYTELGKPARPLVSFLRQFEDYERFRERAYRQVADNRSKWGKVMSKTPPARRDNSDLEHHHHHH”, the “soluble on expression in E. coli” value was “not soluble”.

Turning to “MSLKDILVIGATGKQGNAVVKQLLEDGWYVSALTRNKNNRKLSDIGHPHLSIVEGDLSDNVSLQSAMKGKYGLYSIQPIVKDDVSEELRQGMKIIEIAEQENIQHIVYSTAGGVNRNRTGPHFEVLAKIENRLMESNINATVIKPSFFMDNFLRIAKVEDERITLPEFINPNIKFTMISSIDIAKIASYIFAHPQSFTHQSIEIGSDEVTLSEAATIFSEVTGKSTVIEGEFVSGVAEKQWLEEKGYEVDFELMAEINPTRLSLSDWLKVQNYNEGHHHHHH”, the “soluble on expression in E. coli” value was “soluble”.

As to “MSLARKKRNPDAEKLAESILNAYQPESVDDMQDALKDVFGPLFEKMLQGELNNHLGYDAHSKEPKEHDNRRNGYGTKTLKTSFGEVAIDVPRDREASFEPELIPKRKRDVSDIEGKVLSMYARGMSQRDIAATVEAIYGFDISHEMISDITDAVLPELEEWQARPLAKCYAFLFVDCMYVTLRENYEAKEYAVYTILGYDLKGNKEILGLWLNQTESKNRWMQVFDELKARGVEDVFFISMDGVSGLEEGAKAIFPSVIVQRCIVHLVRNALRYIPSKDYKEVCRDMKKFYGASSLNAAHAAFGSFQNRWSHYSGAVDVWKRNFAHVEQLFDYGSAIRKIMYTTNAVESVHSSFRKVTKKGAFSNENALLKLLYLRTKELHAKWSGGRIQNWAMVLKQLMINETFSSRMKSMRFTFRNNGRFIQLCVRSKEGHHHHHH”, the “soluble on expression in E. coli” value was “soluble”.
